Reference: the supplement of paper PMC11246515
± gives the standard deviation of the averaged measurements.

Experiment: total protein half-life in vivo (active degradation + dilution); higher = more stable protein
[1] = E. coli NCM3722 delta-clpP delta-lon delta-hslV, growth: N-lim chemostat, doubling time 6 h
[2] = E. coli NCM3722 delta-clpP, growth: N-lim chemostat, doubling time 6 h
[3] = E. coli NCM3722 delta-smpB, growth: N-lim chemostat, doubling time 6 h
[4] = wild type E. coli NCM3722, growth: C-lim chemostat, doubling time 3 h
[5] = wild type E. coli NCM3722, growth: C-lim chemostat, doubling time 6 h
[6] = wild type E. coli NCM3722, growth: C-lim chemostat, doubling time 12 h
[7] = wild type E. coli NCM3722, growth: N-lim chemostat, doubling time 6 h
[8] = wild type E. coli NCM3722, growth: N-lim chemostat, doubling time 12 h
[9] = wild type E. coli NCM3722, growth: P-lim chemostat, doubling time 6 h
[10] = wild type E. coli NCM3722, growth: P-lim chemostat, doubling time 12 h
[11] = E. coli NCM3722 delta-hslV, growth: N-lim chemostat, doubling time 6 h
[12] = E. coli NCM3722 delta-lon, growth: N-lim chemostat, doubling time 6 h

MSGARLHTLLPELTTRQSVMVVGAAVIDVIADAYALPWRGCDIELKQQSVNVGGCALNIAVALKRLGIEAGNALPLGQGVWAEMIRNRMAKEGLISLIDNAEGDNGWCLALVEPDGERTFMSFSGVENQWNRQWLARLTVAPGSLLYFSGYQLASPCGELLVEWLEELQDVTPFIDFGPRIGDIPDALLARIMACRPLVSLNRQEAEIAAERFALSAEITTLGKQWQEKFAAPLIVRLDKEGAWYFSNDASGCIPAFPTQVVDTIGAGDSHAGGVLAGLASGLPLADAVLLGNAVASWVVGHRGGDCAPTREELLLAHKNV
total protein half-life in vivo [1]: 4.46 ± 0.92 h
total protein half-life in vivo [2]: 3.62 ± 0.076 h
total protein half-life in vivo [3]: 3.76 ± 0.33 h
total protein half-life in vivo [4]: 3.02 ± 0.012 h
total protein half-life in vivo [5]: 4.79 ± 0.53 h
total protein half-life in vivo [6]: 6.71 ± 3.7 h
total protein half-life in vivo [7]: 3.67 ± 0.096 h
total protein half-life in vivo [8]: 6.33 ± 1.1 h
total protein half-life in vivo [9]: 4.76 ± 0.76 h
total protein half-life in vivo [10]: 11.1 ± 2.4 h

MSGFFQRLFGKDNKPAIARGPLGLHLNSGFTLDTLAFRLLEDELLIALPGEEFTVAAVSHIDLGGGSQIFRYYTSGDEFLQINTTGGEDIDDIDDIKLFVYEESYGISKESHWREAINAKAMGAMTLNWQEKRWQRFFNSEEPGNIEPVYMLEKVENQNHAKWEVHNFTMGYQRQVTEDTYEYLLLNGEESFNDLGEPEWLFSRALGVDIPLTSLHIIG
total protein half-life in vivo [1]: 4.45 h
total protein half-life in vivo [11]: 6.47 ± 1 h
total protein half-life in vivo [12]: > 8 h
total protein half-life in vivo [4]: 3.22 h
total protein half-life in vivo [6]: 12.2 h
total protein half-life in vivo [7]: 5.26 h
total protein half-life in vivo [9]: 6.38 h

MSGGLVTAAYIVAAILFIFSLAGLSKHETSRQGNNFGIAGMAIALIATIFGPDTGNVGWILLAMVIGGAIGIRLAKKVEMTEMPELVAILHSFVGLAAVLVGFNSYLHHDAGMAPILVNIHLTEVFLGIFIGAVTFTGSVVAFGKLCGKISSKPLMLPNRHKMNLAALVVSFLLLIVFVRTDSVGLQVLALLIMTAIALVFGWHLVASIGGADMPVVVSMLNSYSGWAAAAAGFMLSNDLLIVTGALVGSSGAILSYIMCKAMNRSFISVIAGGFGTDGSSTGDDQEVGEHREITAEETAELLKNSHSVIITPGYGMAVAQAQYPVAEITEKLRARGINVRFGIHPVAGRLPGHMNVLLAEAKVPYDIVLEMDEINDDFADTDTVLVIGANDTVNPAAQDDPKSPIAGMPVLEVWKAQNVIVFKRSMNTGYAGVQNPLFFKENTHMLFGDAKASVDAILKAL [P0AB67]
total protein half-life in vivo [1]: 6.55 ± 0.55 h
total protein half-life in vivo [2]: 6.742 ± 0.019 h
total protein half-life in vivo [11]: 6.72 ± 1.3 h
total protein half-life in vivo [12]: 5.57 ± 0.22 h
total protein half-life in vivo [3]: 6.05 ± 0.38 h
total protein half-life in vivo [4]: 3.36 ± 0.3 h
total protein half-life in vivo [5]: 6.08 ± 1.6 h
total protein half-life in vivo [6]: 14.8 ± 0.91 h
total protein half-life in vivo [7]: 6.02 ± 0.96 h
total protein half-life in vivo [8]: 11.7 ± 0.14 h
total protein half-life in vivo [9]: 6.5 ± 0.41 h
total protein half-life in vivo [10]: 11.6 ± 1.1 h

MSGLRPALSTFIFLLLITGGVYPLLTTVLGQWWFPWQANGSLIREGDTVRGSALIGQNFTGNGYFHGRPSATAEMPYNPQASGGSNLAVSNPELDKLIAARVAALRAANPDASASVPVELVTASASGLDNNITPQAAAWQIPRVAKARNLSVEQLTQLIAKYSQQPLVKYIGQPVVNIVELNLALDKLDE
total protein half-life in vivo [11]: 4.28 h
total protein half-life in vivo [10]: 11.7 ± 2.1 h

MSHLAELVASAKAAISQASDVAALDNVRVEYLGKKGHLTLQMTTLRELPPEERPAAGAVINEAKEQVQQALNARKAELESAALNARLAAETIDVSLPGRRIENGGLHPVTRTIDRIESFFGELGFTVATGPEIEDDYHNFDALNIPGHHPARADHDTFWFDTTRLLRTQTSGVQIRTMKAQQPPIRIIAPGRVYRNDYDQTHTPMFHQMEGLIVDTNISFTNLKGTLHDFLRNFFEEDLQIRFRPSYFPFTEPSAEVDVMGKNGKWLEVLGCGMVHPNVLRNVGIDPEVYSGFAFGMGMERLTMLRYGVTDLRSFFENDLRFLKQFK
total protein half-life in vivo [1]: 5.84 ± 0.27 h
total protein half-life in vivo [2]: 6.11 ± 0.96 h
total protein half-life in vivo [11]: 5.72 ± 0.43 h
total protein half-life in vivo [12]: 6.07 ± 0.69 h
total protein half-life in vivo [3]: 4.98 ± 0.13 h
total protein half-life in vivo [4]: 3.49 ± 0.22 h
total protein half-life in vivo [5]: 6.19 ± 0.32 h
total protein half-life in vivo [6]: 12.5 ± 0.82 h
total protein half-life in vivo [7]: 5.37 ± 0.42 h
total protein half-life in vivo [8]: 9.85 ± 0.2 h
total protein half-life in vivo [9]: 6.28 ± 0.36 h
total protein half-life in vivo [10]: 12.91 ± 0.048 h

MSHLDNGFRSLTLQRFPATDDVNPLQAWEAADEYLLQQLDDTEIRGPVLILNDAFGALSCALAEHKPYSIGDSYISELATRENLRLNGIDESSVKFLDSTADYPQQPGVVLIKVPKTLALLEQQLRALRKVVTSDTRIIAGAKARDIHTSTLELFEKVLGPTTTTLAWKKARLINCTFNEPQLADAPQTVSWKLEGTDWTIHNHANVFSRTGLDIGARFFMQHLPENLEGEIVDLGCGNGVIGLTLLDKNPQAKVVFVDESPMAVASSRLNVETNMPEALDRCEFMINNALSGVEPFRFNAVLCNPPFHQQHALTDNVAWEMFHHARRCLKINGELYIVANRHLDYFHKLKKIFGNCTTIATNNKFVVLKAVKLGRRR
total protein half-life in vivo [1]: 5.55 ± 0.53 h
total protein half-life in vivo [2]: 5.19 ± 0.25 h
total protein half-life in vivo [11]: 5.29 ± 0.23 h
total protein half-life in vivo [12]: 5.64 ± 0.14 h
total protein half-life in vivo [3]: 4.7 ± 0.66 h
total protein half-life in vivo [4]: 3.05 ± 0.51 h
total protein half-life in vivo [5]: 5.87 ± 0.088 h
total protein half-life in vivo [6]: 11.9 ± 1.5 h
total protein half-life in vivo [7]: 5.175 ± 0.041 h
total protein half-life in vivo [8]: 8.16 ± 1.4 h
total protein half-life in vivo [9]: 5.7 h

MSHLKDPTTQYYTGEYPKQKQPTPGIQAKMTPVPDCGEKTYVGSGRLKDRKALVTGGDSGIGRAAAIAYAREGADVAISYLPVEEEDAQDVKKIIEECGRKAVLLPGDLSDEKFARSLVHEAHKALGGLDIMALVAGKQVAIPDIADLTSEQFQKTFAINVFALFWLTQEAIPLLPKGASIITTSSIQAYQPSPHLLDYAATKAAILNYSRGLAKQVAEKGIRVNIVAPGPIWTALQISGGQTQDKIPQFGQQTPMKRAGQPAELAPVYVYLASQESSYVTAEVHGVCGGEHLG [P0AG84]
total protein half-life in vivo [1]: 5.31 ± 0.2 h
total protein half-life in vivo [2]: 5.27 ± 0.099 h
total protein half-life in vivo [11]: 5.82 ± 0.34 h
total protein half-life in vivo [12]: 5.57 ± 0.34 h
total protein half-life in vivo [3]: 5.06 ± 0.66 h
total protein half-life in vivo [4]: 3.13 ± 0.54 h
total protein half-life in vivo [5]: 6.3 ± 0.59 h
total protein half-life in vivo [6]: 11.4 ± 2.8 h
total protein half-life in vivo [7]: 5.32 ± 0.27 h
total protein half-life in vivo [8]: 9.18 ± 0.35 h
total protein half-life in vivo [9]: 5.5 ± 0.43 h
total protein half-life in vivo [10]: 10.73 ± 0.025 h

MSHNVTPNTSRVELRKTLTLVPVVMMGLAYMQPMTLFDTFGIVSGLTDGHVPTAYAFALIAILFTALSYGKLVRRYPSAGSAYTYAQKSISPTVGFMVGWSSLLDYLFAPMINILLAKIYFEALVPSIPSWMFVVALVAFMTAFNLRSLKSVANFNTVIVVLQVVLIAVILGMVVYGVFEGEGAGTLASTRPFWSGDAHVIPMITGATILCFSFTGFDGISNLSEETKDAERVIPRAIFLTALIGGMIFIFATYFLQLYFPDISRFKDPDASQPEIMLYVAGKAFQVGALIFSTITVLASGMAAHAGVARLMYVMGRDGVFPKSFFGYVHPKWRTPAMNIILVGAIALLAINFDLVMATALINFGALVAFTFVNLSVISQFWIREKRNKTLKDHFQYLFLPMCGALTVGALWVNLEESSMVLGLIWAAIGLIYLACVTKSFRNPVPQYEDVA [P0AA47]
total protein half-life in vivo [4]: 0.699 ± 0.063 h
